Substrate in the data set: Cc1ncc(COP(=O)(O)O)c(CN)c1O
Put plainly: purified protein, by the assay type. To be noted: other: F48A, 50 mM Tris–HCl pH 7.6, 37°C, 2 μM enzyme.

B1: human PNPO F48A variant (Homo sapiens; F48A) (protein)
chain: MTCWLRGVTATFGRPAEWPGYLSHLCGRSAAMDLGPMRKSYRGDREAAEETHLTSLDPVKQFAAWFEEAVQCPDIGEANAMCLATCTRDGKPSARMLLLKGFGKDGFRFFTNFESRKGKELDSNPFASLVFYWEPLNRQVRVEGPVKKLPEEEAECYFHSRPKSSQIGAVVSHQSSVIPDREYLRKKNEELEQLYQDQEVPKPKSWGGYVLYPQVMEFWQGQTNRLHDRIVFRRGLPTGDSPLGPMTHRGEEDWLYERLAP
A word on the Km: it is the concentration of substrate that gives half-maximal velocity. In general, kcat refers to the number of substrate molecules converted per active site and unit of time at saturation. Regarding B1, the Km was 100 ± 5 µM and the kcat came out at 0.1785 ± 0.003 s⁻¹.

The values above are taken from publication PMC10804683, “Identification of the pyridoxal 5′‐phosphate allosteric site in human pyridox(am)ine 5′‐phosphate oxidase” (Protein Science : A Publication of the Protein Society, 2024).
